Here are results for three molecules from patent US8603987 (GALAXY BIOTECH, dated 2013).

Test [1] has as its target T1, FGFR2IIIb on KATO-III and SNU-16 human gastric tumor cells (human, UniProt P21802-3 22-822).
T1 construct: whole, on cells; Endogenous receptor of human tumor cell lines; also called FGFR2IIIb on the cell membrane
Briefly: flow cytometry on KATO-III and SNU-16 cells overexpressing FGFR2IIIb. As for the experimental part: (§1) Flow cytometry. After washing twice in cell sorting buffer (CSB: PBS/1% FBS/0.02% NaN_3), 2×10^5 cells were resuspended in 50 µl of CSB in a microtiter well and incubated with 50 µl of the anti-FGFR2 mAb to be tested (1 µg/50 µl) for 1 hr on ice. Cells were then washed twice in CSB and the bound antibodies detected by incubation with FITC-goat anti-mouse IgG (Jackson ImmunoResearch Laboratories) for 1 hr on ice. After washing twice in CSB, cells were analyzed on a FACScan (Becton Dickinson).
(§2) To confirm that the selected mAbs bind to the appropriate forms of FGFR2 on the cell membrane, flow cytometry was employed. KATO-III (ATCC HTB-103) and SNU-16 (ATCC CRL-5974) cells, which overexpress FGFR2IIIb, were used to test binding to that form of the receptor. […] Human 293F cells transfected with a gene for FGFRIIIc were used to test binding to that form, after verifying that none of the mAbs bind to the host 293F cells themselves. […] Finally, since the S252W mutation of FGFR2 is found in some cancer cells, binding of the mAbs to 293F cells transfected with an FGFR2IIIb gene constructed to contain that mutation (FGFR2IIIb(S252W)) was tested. As also seen in FIG. 7, all the mAbs bound to the FGFR2IIIb(S252W)-transfected cells. The ability to bind FGFR2IIIb(S252W) is a preferred property of mAbs of the invention.
For orientation: In flow cytometry, cells or beads pass a laser one at a time.

Test [2] deals with T2, Chimpanzee FGFR2IIIb-Fc (human FGFR2IIIb ECD with residue 186 methionine to threonine, fused to human Fc) (chimpanzee; human, UniProt P21802-3 22-378).
T2 construct: range 1-378; Built from the human FGFR2IIIb-Fc construct; also called chimp FGFR2IIIb; not shown: human Fc, residues 216 to 446
The experiment in a line: ELISA, FGFR2IIIb-Fc captured by anti-human IgG-Fc. As for the experimental part:
(§3) To determine the ability of the mAbs to bind to FGFR2 from species other than human, ELISA assays were used. ELISA wells were coated with 2 µg/ml of goat anti-human IgG-Fc overnight at 4° C. After blocking with 2% BSA for 1 hr at RT, the wells were incubated with 0.2 µg/ml of FGFR2IIIb-Fc for 1 hr, where the FGFRIIIb in the fusion protein was either human, mouse, cynomolgus monkey or chimpanzee FGFRIIIb. The wells were then incubated with various concentrations of GAL-FR21 or GAL-FR22 mAb. The bound mAbs were detected by addition of HRP-conjugated goat anti-mouse IgG-Fc and then TMB substrate. […] A similar experiment with chimpanzee FGFR2 gave the same results as with cynomolgus monkey FGFR2: GAL-FR21 bound to chimpanzee FGFR2 as well as (indistinguishably from) human FGFR2, while GAL-FR22 bound to chimpanzee FGFR2 moderately well (within about 100-fold of human FGFR2). […] Binding to FGFR2 from such other species makes testing of the mAbs in those animal species easier to conduct.
(An ELISA detects its analyte on a solid surface through an enzyme-linked reagent.)

For test [3], the target named is T3, human FGFR2IIIb-Fc (alpha form, entire ECD amino acids 1-378 fused to human Fc) (human, UniProt P21802-3 22-378).
T3 construct: range 1-378; Secreted from 293F cells and purified on protein A/G; not shown: human Fc, residues 216 to 446
Briefly: ELISA, FGFR2IIIb-Fc captured by anti-human IgG-Fc. As for the experimental part: as §3

In test [4] the target is T4, human FGFR2(beta)IIIb-Fc (amino acids 152-378, missing D1, fused to human Fc) (human, UniProt P21802-3 152-378).
T4 construct: range 152-378; The signal peptide used for secretion of the beta form is not described; also called beta form of FGFR2IIIb; not shown: human Fc, residues 216 to 446
Briefly: ELISA on the four FGFR2-Fc forms, fixed mAb concentration. As for the experimental part: ELISA assay for mAb binding to FGFR2 fusion protein. ELISA plates were coated with goat anti-human IgG-Fc (2 µg/ml) overnight at 4° C. Then nonspecific binding sites were blocked with 2% BSA for 1 hr at RT. Plates were incubated with one of the FGFR2 fusion proteins described above (1 µg/ml) for 1 hr, followed by incubation with various concentrations of mAbs or hybridoma culture fluids for 1 hr. The bound mAb was detected with HRP-Goat anti-mouse antibody followed by washing, addition of TMB substrate (Sigma) and reading at 450 nm. In all ELISA assays, plates were washed 3 times between each step.
Figure 3: FIG. 3. Binding ELISA of mAbs GAL-FR21, GAL-FR22 and GAL-FR23 and negative control mIgG to FGFR2IIIb. Figure 4: FIG. 4. Binding ELISA of mAbs GAL-FR21, GAL-FR22 and GAL-FR23 and negative control mouse mAb 5G8 to each of the four forms of FGFR2—FGFR2IIIb, FGFR2(beta)IIIb, FGFR2(IIIc) and FGFR2(beta)IIIc—as fusion proteins with Fc. A fixed concentration of each mAb was used in the assay.

For test [5], the target named is T5, FGFR2IIIb(S252W) on transfected human 293F cells (UniProt P21802-3 22-822).
T5 construct: whole, on cells
Briefly: flow cytometry on 293F cells transfected with FGFR2IIIb(S252W). As for the experimental part:
as §1, §2

Test [6] concerns the target T6, FGFR2IIIc on transfected human 293F cells (UniProt P21802 22-821).
T6 construct: whole, on cells; also called FGFRIIIc
The experiment in a line: flow cytometry on 293F cells transfected with FGFRIIIc. As for the experimental part: as §1, §2

In test [7] the target is T3, human FGFR2IIIb-Fc (alpha form, entire …). Briefly: estimate from the 50% inhibition point of the competition ELISA on FGFR2IIIb-Fc against biotinylated GAL-FR21. As for the experimental part: To compare the binding affinity of HuGAL-FR21 with that of the mouse mAb GAL-FR21, a competitive binding experiment was performed using standard ELISA technology. Specifically, ELISA wells were coated with 2 μg/ml of goat anti-human IgG-Fc overnight at 4° C. After blocking with 2% BSA for 1 hr at RT, the wells were incubated with 0.5 μg/ml of FGFR2IIIb-Fc. The wells were then incubated with biotinylated GAL-FR21 mAb (0.05 μg/ml) in the presence of increasing concentrations of unlabeled GAL-FR21, HuGAL-FR21 or control human antibody hIgG. The level of biotinylated GAL-FR21 bound was determined by the addition of HRP-streptavidin and substrate. […] HuGAL-FR21 may also be tested in any of the biological assays for FGFR2 activity described herein, e.g., inhibition of binding of FGF2 or FGF7 to FGFR2, and will inhibit FGFR2 activity comparably to GAL-FR21.

T3 sequence (P21802 other isoform, or with tags, fused parts or gaps): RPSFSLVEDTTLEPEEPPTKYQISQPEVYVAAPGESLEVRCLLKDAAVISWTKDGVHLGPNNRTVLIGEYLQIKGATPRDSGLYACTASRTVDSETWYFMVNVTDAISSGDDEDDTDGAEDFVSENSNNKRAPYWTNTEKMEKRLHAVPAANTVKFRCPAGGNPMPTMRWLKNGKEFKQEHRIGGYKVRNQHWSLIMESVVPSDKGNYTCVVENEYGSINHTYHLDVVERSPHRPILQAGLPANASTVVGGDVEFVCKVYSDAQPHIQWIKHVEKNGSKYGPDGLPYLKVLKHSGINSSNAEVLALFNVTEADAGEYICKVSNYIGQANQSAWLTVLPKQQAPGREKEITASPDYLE
T5 sequence (P21802 other isoform, or with tags, fused parts or gaps S252W S252W): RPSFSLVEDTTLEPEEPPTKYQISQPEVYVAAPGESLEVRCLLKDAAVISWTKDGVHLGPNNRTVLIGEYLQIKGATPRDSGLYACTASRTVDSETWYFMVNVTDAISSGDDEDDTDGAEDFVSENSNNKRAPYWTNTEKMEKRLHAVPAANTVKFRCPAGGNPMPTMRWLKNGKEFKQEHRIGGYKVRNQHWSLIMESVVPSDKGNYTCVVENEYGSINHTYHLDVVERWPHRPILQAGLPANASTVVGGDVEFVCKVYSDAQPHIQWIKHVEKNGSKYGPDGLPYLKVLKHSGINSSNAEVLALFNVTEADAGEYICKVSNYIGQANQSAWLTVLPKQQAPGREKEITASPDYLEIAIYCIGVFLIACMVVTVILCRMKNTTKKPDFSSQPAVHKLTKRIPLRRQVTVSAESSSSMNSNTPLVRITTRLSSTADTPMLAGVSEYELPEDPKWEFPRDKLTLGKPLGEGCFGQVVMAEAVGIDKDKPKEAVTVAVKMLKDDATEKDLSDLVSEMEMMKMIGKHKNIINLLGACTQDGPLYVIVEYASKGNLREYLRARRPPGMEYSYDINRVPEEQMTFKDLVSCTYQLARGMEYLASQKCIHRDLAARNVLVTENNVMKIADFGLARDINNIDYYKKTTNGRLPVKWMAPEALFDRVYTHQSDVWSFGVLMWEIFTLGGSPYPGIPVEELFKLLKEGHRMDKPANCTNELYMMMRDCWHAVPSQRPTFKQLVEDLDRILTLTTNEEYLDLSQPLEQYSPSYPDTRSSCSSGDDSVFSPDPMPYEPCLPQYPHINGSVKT
T2 sequence (P21802 other isoform, or with tags, fused parts or gaps): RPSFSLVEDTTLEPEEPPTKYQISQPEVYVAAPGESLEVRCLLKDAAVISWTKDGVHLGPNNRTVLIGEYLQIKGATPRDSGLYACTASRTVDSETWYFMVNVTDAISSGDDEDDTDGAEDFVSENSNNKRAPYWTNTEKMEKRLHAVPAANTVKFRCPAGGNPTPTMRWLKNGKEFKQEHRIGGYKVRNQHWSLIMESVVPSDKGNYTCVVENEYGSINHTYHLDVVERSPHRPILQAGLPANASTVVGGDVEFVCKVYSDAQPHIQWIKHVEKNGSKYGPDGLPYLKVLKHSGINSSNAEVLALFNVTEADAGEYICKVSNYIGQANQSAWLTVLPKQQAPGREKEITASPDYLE
T6 sequence (P21802 22-821): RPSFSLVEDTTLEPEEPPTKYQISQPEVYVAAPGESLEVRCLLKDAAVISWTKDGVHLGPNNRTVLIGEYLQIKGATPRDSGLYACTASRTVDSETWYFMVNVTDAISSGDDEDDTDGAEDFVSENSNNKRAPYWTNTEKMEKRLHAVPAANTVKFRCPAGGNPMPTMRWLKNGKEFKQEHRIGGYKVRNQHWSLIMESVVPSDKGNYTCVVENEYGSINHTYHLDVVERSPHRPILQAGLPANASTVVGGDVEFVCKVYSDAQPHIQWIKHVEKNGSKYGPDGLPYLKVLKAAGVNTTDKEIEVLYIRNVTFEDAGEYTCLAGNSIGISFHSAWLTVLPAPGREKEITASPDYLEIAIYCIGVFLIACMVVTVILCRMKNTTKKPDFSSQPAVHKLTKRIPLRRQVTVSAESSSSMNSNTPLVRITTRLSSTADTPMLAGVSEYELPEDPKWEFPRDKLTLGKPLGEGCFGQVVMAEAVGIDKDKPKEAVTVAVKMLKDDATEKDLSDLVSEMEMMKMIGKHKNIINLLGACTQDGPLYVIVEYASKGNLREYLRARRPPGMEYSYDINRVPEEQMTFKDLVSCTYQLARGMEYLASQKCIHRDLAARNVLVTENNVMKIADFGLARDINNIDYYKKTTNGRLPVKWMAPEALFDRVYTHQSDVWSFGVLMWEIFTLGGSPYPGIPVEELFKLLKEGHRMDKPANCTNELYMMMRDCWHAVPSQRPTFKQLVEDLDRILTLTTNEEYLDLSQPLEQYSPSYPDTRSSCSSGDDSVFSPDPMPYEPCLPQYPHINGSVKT
T1 sequence (P21802 other isoform, or with tags, fused parts or gaps): as the sequence (P21802 other isoform, or with tags, fused parts or gaps S252W S252W) above, with W231S counted along it
T4 sequence (P21802 other isoform, or with tags, fused parts or gaps): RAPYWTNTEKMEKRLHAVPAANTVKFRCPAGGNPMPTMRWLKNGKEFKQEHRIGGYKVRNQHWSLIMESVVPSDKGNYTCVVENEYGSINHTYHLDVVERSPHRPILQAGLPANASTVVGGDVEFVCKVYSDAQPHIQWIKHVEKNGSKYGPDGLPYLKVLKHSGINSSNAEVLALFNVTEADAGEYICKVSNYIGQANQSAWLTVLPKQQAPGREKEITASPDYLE

B1: GAL-FR21 (antibody, V domains shown)
VH: QVQLQQPGAEVVKPGASVKMSCKASGYIFTTYNVHWVKQTPGQGLEWIGSIYPDNGDTSYNQNFKGKATLTADKSSSTAYIQLSSLTSEDSAVYYCARGDFAYWGQGTLVTVSV
VL: NIVMTQSPKSMSMSVGDRVSITCKASQGVSNDVAWYQKKPGQSPKLLIYSASYRYTGVPDRFTGSGSGTDFTFTISNVQAEDLAVYYCQQHSTTPYTFGGGTKLEIK
notes: Mouse monoclonal antibody from a hybridoma; also called mouse GAL-FR21; ATCC PTA-9586
Consider B1, for which the binding result in test [1] is on record as “binds”; in test [2] it was “binds”; in test [3], “binds”; in test [4] it was “binds”; in test [5], “binds”; in test [6] it was “no binding (tested: 1 µg/50 µl)”.

B2: GAL-FR22 (antibody, V domains shown)
VH: QVQLKQSGPGLVQPSQSLSITCTVSGFSLTSFGVHWVRQSPGKGLEWLGVIWSGGSTDYNADFRSRLSISKDNSKSQIFFKMNSLQPDDTAIYYCANFYYGYDDYVMDYWGQGTSVTVSS
VL: DIQMTQSPSSLSASLGGRVTITCKASQDIKNYIAWYQHKPGKSPRLLIHYTSTLQPGVPSRFSGSGSGRDYSFSISNLEPEDIATYYCLQYDDLYMFGGGTKLDIK
notes: Mouse monoclonal antibody from a hybridoma; also called GAL-FG22; ATCC PTA-9587
For B2, the binding result in test [1], in test [2], in test [3], in test [4], in test [5] and in test [6] was “binds” each time.

B3: HuGAL-FR21 (antibody, human IgG1, kappa, V domains shown)
VH: QVQLVQSGAEVKKPGSSVKVSCKASGYIFTTYNVHWVRQAPGQGLEWIGSIYPDNGDTSYNQNFKGRATITADKSTSTAYMELSSLRSEDTAVYYCARGDFAYWGQGTLVTVSS
VL: DIQMTQSPSSLSASVGDRVTITCKASQGVSNDVAWYQQKPGKAPKLLIYSASYRYTGVPSRFSGSGSGTDFTFTISSLQPEDIATYYCQQHSTTPYTFGQGTKLEIKR
notes: Humanized IgG1, kappa; also called humanized GAL-FR21
Take B3: the Ka in test [7] is ≥ 1e+09 M⁻¹.
